{
  "source": "the NTF2 design screens of Basanta et al. (2020)",
  "data": [
    {"assay": "protease stability score; higher = more stable; yeast display proteolysis, trypsin and chymotrypsin;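 note: log10 excess protease needed over predicted unfolded state with 0 meaning unfolded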", "values": [
      {"sequence": "DEEQKKHVKEMIEAERTGNEEQARKLVDEDVRANYGDHEVHGRETLRKHVRDVKREWSVQIDDVKLRVHNGRVQMHFDFVRDENGRPEKMTATATAEAHNGKIKEINRQDHK", "protease stability score": -0.204},
      {"sequence": "DEEQLDLNRRWMTALKTNNPDDAINLIDPNAKVHVGDKTLSGRENIKTYLKHLIHESRFRFRVQSMNAKNGQVDVSVKQTQSHNGQPSTNRIVVRMEVENGTITSNTIDSKS", "protease stability score": -0.073},
      {"sequence": "DEEQLKEYTKEMEHNDEEQFSRMMDKDARVIVGDKTFTGREDAATMLLLIRRRVDHIEIRKITIQGDHVVVHQVVQVNGKEAEFEREVHVKNGHIKEVHIQARDEDDERVLHQAMD", "protease stability score": 0.468},
      {"sequence": "DEEQLKHVAEQLRRLWENNDENQIAQLMDENVEVQVGDKTLHGRDDVRKWAQDLRKSADHVKVHSIRNRGDKVQMDFVVENNGRQTKMEVIAHVHNGRIKSLKLRTK", "protease stability score": 1.16},
      {"sequence": "DEEQLKKVVEKLLQAIQNGNLDEIKKMLKDDVTFVLGDKTFRGVEQAVKIVKQLVDKGAEFHVERLEVKGDQAHVKTYWHAGDKTMELTVTYNVRDDKVEKVQADWSEEVKKARKHD", "protease stability score": 0.985},
      {"sequence": "DEEQLKMARELFEIMHTGDPDQLKEQFPPDAHFNIGDKRVSGMTEFARQVENEHKEQRRSIDIKSMDVNSPHVTIQARFEVEHNGQPHTSTATIQFQFQNGRFLNMRVQSHQ", "protease stability score": -0.106},
      {"sequence": "DEEQLKTFQQAMRDEEHGNEQRVRDLFDPNARVVYGDKVVHGREEMVKKLKRRKDEMRVELRVREYKVEEDHMSATLEVINDHNGKPDTDKQTVEARMNGDQFEQVNIQKDS", "protease stability score": 0.17},
      {"sequence": "DEEQLKTIREWMNQVQRGNFDQWAKNLDKNAHVDYGDRSVTGREEWQRLMRRQKREIRMQVKVDHVSAQGENIEVQARVRFTHNGQPDETNNKITAKVHNGRVKHMRVEEDK", "protease stability score": 0.248},
      {"sequence": "DEEQLQREANEYNKLRRHGDPDRIVELADPNARAHVGDKRVHGREDMKRMVEEERKHADHITFTDFRVDGDKLEILFVITHNGQSDTRIMTIQWDNGKIKRLEVKNN", "protease stability score": 0.381},
      {"sequence": "DEEQMDRFKDLKHALDEGDEDRLKNLVDPNARMRYGDKEVTGMEDIARQQVQRVNEINVEVDRMHVQVHNGTLEIHATVTENHNGKPKKYTFRATARAENGRFVHRVQETRG", "protease stability score": -0.101},
      {"sequence": "DEEQMERVMQRVIKALQQGDQETVRKLGKPNGEVQAGDYRNKGPEAFVMAVDVAQKVGNKFEYKETRTKGGKMQTVVKVTVGGKTVEYEVEVVVEGGKAKEWYVRLDDDFVEQAKKS", "protease stability score": 0.514},
      {"sequence": "DEEQMKKVVEKLVQALRNGNTDEIVRMVKEDVTFKLSDETYRGQEDVRKMAKQLQDKGNKMELKHKEAKGDEAEVVTVWHVGDKTAKLKVRYVVKDDKVEKVQADWSEEVVKAYKHG", "protease stability score": 0.122},
      {"sequence": "DEEQMKKVVEQLLQALQNKDPEKIVQLVDEDVEFTLVDEKYKGHEDVRKLVKKLVDAGAEFRIDRHEATGDQAHVDTQWKVGDYTLKVTVTYVVRDDKVEKVEIRWSEEAKKAMKEG", "protease stability score": 1.11},
      {"sequence": "DEEQNEHFSKVLQHGDFDRLAELMDPNAKAEVGDKTVHGREEFQRWIEHFKRQVDHIQYDRIDYHGNEIHASVRVHVNGNTIEFNVSLEFKNGRVTSFMMKARTKDDEDELRRLQS", "protease stability score": 1.47},
      {"sequence": "DEEQNKLADTAMEAWNHGDPDQMVKMLDPNARVRYGDKQFHGRTDVKKWMKRLNDQARMSVTHYKIRVKGEKALLTARLEFEINGQPFRRHVKVVFNNHNGKAKQVDWQFDQDKQRKIES", "protease stability score": 0.152},
      {"sequence": "DEEQNRRIDDMWRAEENGDENRMKELADPNVELQIGDKQVHGMDEYVKEAKKRRDKSEISIEIKQVEVHNGSVHVDFVFTENENGTPDSKRVHVNARFDNGKLKSMSQNDTE", "protease stability score": 1.1},
      {"sequence": "DEEQNTRFHRMLEDLKTGNEERVQDYMDPNVKVRIGNNVLDGREHAATHMVQLNREIRFHIHNFTVQVHNGRLDIKANADADVNGKPIKFSYERYAILHNGTIKRMREQFDEHLKRQLDR", "protease stability score": -0.013},
      {"sequence": "DEEQQKEQKKRLREMIETNNEDELQRQADKDVKVVVGDQTYHGREEARKWVHELKRRVDHVRVDRVEAHGNKISARYRASVNGETQRYNMVIHITNGRIQHMRVTEG", "protease stability score": 0.894},
      {"sequence": "DEEQRKRMAEKFRNAIQRNDDDKIRELAPPDVSARYGDKEVHGREELLKYIDRLHKEADRIDVHDLHVKGETIILTLVVNINGHNHRYNFVAHIHDGRMHRMKVESR", "protease stability score": 1.21},
      {"sequence": "DEEQRLKQVFDTLVKAFEDNDEDQIRDMMDPNVTVRVGDKEVHGRDEVARRVVDERRKVDHVHNDIKDYRVRGNHLVMKIDQVFNHNGETRKQTATMVVKVHDGRAVVETLHYD", "protease stability score": 1.09},
      {"sequence": "DEEQRRMVQELFKALQHGDPDKVEELVDPNAQLHYGDKTVTGREEMHRWIEHLLDKIRIHFQRVSVRSRNGRAIAHATVEVVFNGKPDTVTFDLEANVHNGKFRRIVLRFPEEAQKKLKR", "protease stability score": 1.48},
      {"sequence": "DEEQTLRERFNTLKRAQDHNDEEDLRRMMDENVKVRIGDEDVHGRETANEQFARMLRRVDHVRLRLKTMHVHGEKYQFRFELQLTVNGRHEHRDVRIRFDNVNGRTNIVEMEVG", "protease stability score": 0.35},
      {"sequence": "DEEQVEHAMNRLVQALRSGDEKKLLDLAPEDVKMRIGDREFHGREDFEKAVKEFVDRVDHFQFEDVSIRGDDIFIHVWNQVNGRRHKQVITVKAHNGRMKHMVLDTP", "protease stability score": 0.983},
      {"sequence": "DEEQVEHMRRIVQEGDFDELKDNADPNARVQVGDKRYHGREQVQHVMKNFRDKADHVEISSIKQDEDHVSAEMHVEVNGERFVIRIHFVVHNGRLEQINIQVTSERDQKKLKKMLD", "protease stability score": 0.185},
      {"sequence": "DEEQVKKVLETLVKALQKGNIEEILKMLKEDVEFVLIDEKYQGREDAKKIVKQLVDQGMEVHFDRHEVTGNQAHVQTRWHYGNKEAHAEVTYYVKGDTVDKVDIQWSETAKKAVKEG", "protease stability score": 1.13},
      {"sequence": "DEEQVKKVVEELLKAVHNGNVDQIKKIVKENVEFTLGDKTMKGQEDVEKDVKQLHDKGADFKVDEVEVTGDHATANTKWQIGDQKAHVQVHYQVRDDTVERVEVRWSEDAKKAIKQG", "protease stability score": -0.141},
      {"sequence": "DEEQVKKVVKVLMEYFKRGDVDQIVRMIDEDVEFKLLDEKKKGQEQVKTVIKKLHDQGAEVHVDHAEVEGDKATVDTRWHIGDHTMEATVEYYVEGDRVKKVKVQWSEEAKKALHAG", "protease stability score": 1.06},
      {"sequence": "DEEQVNKVRTLVESNDEKTMQELADPNAKAEIGNKRFHGMHRAAHVLTKLRKQADTVRYREIDVHNGQVHAHFSMHFNGKRIDARVVLKVRNGRLRHMKIEATDPHLEEELERQVQ", "protease stability score": 0.268},
      {"sequence": "DEEQVQKVVDKLIKAVQNGNRKQIVDLVKENVEFTLADETYKGKDDVQTVIKRLHEVGAEVHVDRYDVRGDTAHADTRWHMDDQEMHVTVEYVVRGDRVEQVHVQWSEEAKKVHKKG", "protease stability score": -0.044},
      {"sequence": "DEEQVREAMEIVKHGDPDKFRKQADKDVRLTIGDTEYHGREDVMTVLVSFLRTVDHLNIKSVDVRGDKAVINADFNYNGKEININIHLEFHNGRLKSVQIQATNREDQKDLKRIIK", "protease stability score": 1.28},
      {"sequence": "DEEQVRKMLETILKMMVNGNLEEVKKVLKPNVDYQLGDEKLQGQQVAERADKYIKKVGVRAEIKRAKVEGDTAELDYEFTADGRTVRVTVQAHAKDGRLDQWRVEVSDTAKKIRQKG", "protease stability score": 0.736},
      {"sequence": "DEEQVRKVVEQLLKMLQNKNTEEIVKLVKEDATFTLGDETRRGQEDVRKLVQRLKEQGAEFHTHEVRVKGGEAKAKTQWHVANREVHAEVKYVVRGDKVEKVEVRWSEEAKKALKEG", "protease stability score": -0.071},
      {"sequence": "DEEQVTKAKNLLENWKTNNPEEVKKLADPNARAQIGDQVIHGMDKYVTFLHKQRSKMRFELHIRSMTADNGRVKMTFDHVVDHNGRPDKNDARMSVQFENGKIKELVIQKDK", "protease stability score": -0.295},
      {"sequence": "DEERAAHNALRALEAMLTGDEKKADELADKDVRVNVGDRVYDGDEKMQKFVRELRKRYDHFHFRTYSHDGDKVKANVILNVNGRNVEIIFYLHAHNGKLKSVRVEVRNPELLKNLTS", "protease stability score": 1.23},
      {"sequence": "DEERADELVELLTNNNFQSLADNADPNASIEYGDKTIRGRDEANKFLQNIERRADHVEIKSLKTKGNKIDIDLVVHVNGQKLRFKVEIKLRNGKVTHIRIQATSERDQRKFLEVVG", "protease stability score": 1.06},
      {"sequence": "DEERAKQLMEKAFKMIRNGNEEVVRKMLKPNGRYEYIDKKFEGEEAAKFVVQLVQKVGAEDKVKRKEVKGDTAKMDFDYHKGDKTVRTTAEVIYKGDKMEQARVELTDEVKKIVHQG", "protease stability score": 0.046},
      {"sequence": "DEERAKQVADKVFKYAINGDEEKMQKQLDPNVEYKYADTEYEGEDAARAIVRLVKQVGMEVKTQRQEVKGNTMQADFRYHNGDKEVQTTARVEYEGDKVKKVEVKVTDEVKKEAHKG", "protease stability score": -0.068},
      {"sequence": "DEERAMKDAVDRMEKNVKNGNFDKMMNLADKDAKVVVGDDTYRGRDNNVKKNKEDKEEFDHAEVRFKEVEVENGRISIHADITLNVNGQDVTRRFNFELRNHNGTALIVRLTLK", "protease stability score": 0.188},
      {"sequence": "DEERAQHLVDQIFRAFKRGDPEQFKKMFDPNARMHVGDQRYHGREDIIKFLQEIREQADTITLRKVTVHNGQADIIVDVQVDGRRVRIQILINYHNGKVKSLKIHYTDEELQKEIES", "protease stability score": 1.56},
      {"sequence": "DEERDERVATKVAEAMATGDPEKVMEQAPPNAEMRIGDKHFTGEEHIKQALLEWKRDADHIQVDHVSVQNGRAHMDMQFTINGRKRRYTLRVEVHNGKAKTVSVREP", "protease stability score": 0.315},
      {"sequence": "DEERDLDIAVEAAKNLLTGNEERFSKMAPPDVRIEYGDKTVHGREQANTAVKEFRDRVDHIEIKRIEKDGNKAHIEFIANVNGHRFTVTMVVDVSNGRVNQVDIRARNKEDQEKMKG", "protease stability score": 0.06},
      {"sequence": "DEEREAKEWMELFEDQFRQGNEHEVNKLMDKDARIHVGEKHVSGRNQAKKELKEHMKRADHIHIQLHEVDSRPGRMILDFTINQQVNGRRSSDKVRARFSKRNGRWYQESETQG", "protease stability score": 0.104},
      {"sequence": "DEEREEQARKLLRAEEQGDPDRAKQMMDPNARVQVGNKRVHGRSEIATQLEKRKRRARYEIKHVTIRARGNRVDVKINVQVVVNGRPHHFTYIMHLTFQGDKAKNATVRIDEDTLRQVDS", "protease stability score": 0.171},
      {"sequence": "DEEREKEFATRIATALRTNDPKKMVKNFDENAKFDVGDNRIKGREELKEWVDELHKEFDHIEIHDVQAHNGRAKINLKLEHNGRDTVLDATVVVENGRAKSAKQDQS", "protease stability score": -0.448},
      {"sequence": "DEERELEELMQRLISLMKNGNPKEVAKLLDPNVRVQYGDKRLHGREQAIRRIESLRRHVDHVTMSIESLQVEGDKVSARIEAVYDVNGTQDQRTIELELRQVNGKLRFKHITFK", "protease stability score": 0.017},
      {"sequence": "DEEREVKKRIKHIIRVLENGDEDRAEELADPNTTARVGDKRVHGMNNYMRELARKARRADHVEVTIKHMDLNGEKFDIRLHIVIHVDGRREKFDLRFVITRQGDKHVAVDVQVS", "protease stability score": 1.47},
      {"sequence": "DEERKAEEMAKSIIKVWQSGDHHQQQRNADEDVRFEIGDKRINGDHQLEDWVKKIKEQYDHIEVRIKSVTRQGDKLVVIAQVVYNENGHRRQVTVRFVAVDHNGTIVLKRAIYR", "protease stability score": 0.406},
      {"sequence": "DEERKEQLLEIYKAIDTGNPEKVKELADPNAHVQYGDKSVHGMDDAVRQLEKRRKEIRIHWDVKSVHVEGNKVDVVAENEEEHNGHPRSHTVRVNAEFQGDKMKNAHYQSDK", "protease stability score": -0.202},
      {"sequence": "DEERKKQAEHFMRVYQQGNEEELNKLMDPNVKANVGDKEWQGREKMAKDTREKLEHSKLQLHSVSVDAQGNNIRIDVSFVVNHNGEPRRNHQTIIIHIDNGRITRLEVKDTS", "protease stability score": 0.004},
      {"sequence": "DEERKKRVEEALRQEQQGNEEDYSELMDENVKITIGDKTIRGSKEAVRHFKEKMTQMRIELRDYRIQVHGNKVSVDLKYVNDHDGQPRHQKATATMDMTNGRVQSREVDNKP", "protease stability score": 0.186}
    ]}
  ]
}
